In US20180298070A1, “PEPTIDE COMPOUND” (Takeda Pharmaceutical Company Limited, published 2018):
Non-standard residues stand in square brackets, D forms with d. Groups on a side chain read outwards from the residue. Primed or numbered codes have the meaning given here. No end group written: not given here. *: point of attachment. C20 diacid = O=C(O)CCCCCCCCCCCCCCCCCCC(=O)*; Iva = CC[C@](C)(N)C(=O)O; Aib = CC(C)(N)C(=O)O

B1: Compound 342 (peptide)
peptide: YXEGTXISDYSIXXDRXAQXNFVNWXLAQRPSSGAPPPS
modifications: Me-Tyr at 1; Aib at 2, 13, 17, 20; Iva at 6, 26; Lys(Eda-GGGGGG-) at 14; C-terminal amide (-NH2) (as printed for SEQ ID NO: 355 in the 1st table)
B2: Compound 503 (peptide)
peptide: YXEGTXISDYSIXLDRXHQXNFVNWXLAQRPSSGAPPPS
modifications: N-terminal methyl (Me-Tyr); Aib at 2, 13, 20; Iva at 6, 26; Lys(Heda-GGGGGG-) at 17; C-terminal NH2
B3: Compound 30 (peptide)
peptide: Y[Aib]EGTVVSLYSI[Aib]LDRQAQ[Aib]EFVRWLLRGGPSSGAPPPSR-NH2
modifications: N-terminus assumed
SMILES: CC[C@H](C)[C@H](NC(=O)[C@H](CO)NC(=O)[C@H](Cc1ccc(O)cc1)NC(=O)[C@H](CC(C)C)NC(=O)[C@H](CO)NC(=O)[C@@H](NC(=O)[C@@H](NC(=O)[C@@H](NC(=O)CNC(=O)[C@H](CCC(=O)O)NC(=O)C(C)(C)NC(=O)[C@@H](N)Cc1ccc(O)cc1)[C@@H](C)O)C(C)C)C(C)C)C(=O)NC(C)(C)C(=O)N[C@@H](CC(C)C)C(=O)N[C@@H](CC(=O)O)C(=O)N[C@@H](CCCNC(=N)N)C(=O)N[C@@H](CCC(N)=O)C(=O)N[C@@H](C)C(=O)N[C@@H](CCC(N)=O)C(=O)NC(C)(C)C(=O)N[C@@H](CCC(=O)O)C(=O)N[C@@H](Cc1ccccc1)C(=O)N[C@H](C(=O)N[C@@H](CCCNC(=N)N)C(=O)N[C@@H](Cc1c[nH]c2ccccc12)C(=O)N[C@@H](CC(C)C)C(=O)N[C@@H](CC(C)C)C(=O)N[C@@H](CCCNC(=N)N)C(=O)NCC(=O)NCC(=O)N1CCC[C@H]1C(=O)N[C@@H](CO)C(=O)N[C@@H](CO)C(=O)NCC(=O)N[C@@H](C)C(=O)N1CCC[C@H]1C(=O)N1CCC[C@H]1C(=O)N1CCC[C@H]1C(=O)N[C@@H](CO)C(=O)N[C@@H](CCCNC(=N)N)C(N)=O)C(C)C

What was measured:
[1] = target: human GLP-1R (human, UniProt P43220); assay: cell-based or functional assay
[2] = target: T1, human GIPR (human, UniProt P48546); assay: [125I]GIP competition, human GIPR VLP
T1 sequence: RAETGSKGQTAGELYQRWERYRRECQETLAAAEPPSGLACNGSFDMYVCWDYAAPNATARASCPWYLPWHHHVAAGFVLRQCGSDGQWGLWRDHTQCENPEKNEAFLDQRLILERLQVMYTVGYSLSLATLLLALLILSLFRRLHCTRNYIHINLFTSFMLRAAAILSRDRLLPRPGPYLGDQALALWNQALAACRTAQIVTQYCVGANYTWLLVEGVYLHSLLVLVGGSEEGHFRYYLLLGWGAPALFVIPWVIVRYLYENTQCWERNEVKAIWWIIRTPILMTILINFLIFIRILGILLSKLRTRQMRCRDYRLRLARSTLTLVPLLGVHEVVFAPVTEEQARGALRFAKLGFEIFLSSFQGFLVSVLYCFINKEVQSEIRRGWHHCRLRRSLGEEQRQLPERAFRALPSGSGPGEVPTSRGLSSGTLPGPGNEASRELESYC
Experimental: (§1) For the measurement of the binding activity to GIPR, [¹²⁵I]GIP (PerkinElmer, Inc.) in a final concentration of 100 pM and a test compound in a specified concentration were mixed to GIPR_VLP in an assay buffer (50 mM HEPES (pH 7.4, WAKO 342-01375), 5 mM EGTA (WAKO 346-01312), 5 mM MgCl₂ (WAKO 136-03995), 0.1% BSA (Merckmillipore 81-066-04) and 0.005% Tween 20 (BioRad 170-6531)) and reacted at room temperature for 2 hours. VLP to which [¹²⁵I ]GIP was bound was trapped in a GF/C glass fiber filter 96-well plate (PerkinElmer 6005274) using a cell harvester and washed with an assay buffer. The GF/C glass fiber filter 96-well plate in which VLP was trapped was dried at 42° C. overnight. Thereafter, MicroScint-O (PerkinElmer 6013611) was added to the GF/C glass fiber filter 96-well plate sealed using a backseal and the plate was sealed using a topseal. The radioactivity of each well was eventually measured using Topcount (PerkinElmer) and the binding activity of the test compound to GIPR was calculated when the [¹²⁵I]GIP binding activity in the presence of GIP in a final concentration of […] was 100% and the [¹²⁵I]GIP binding activity of the wells to which DMSO was added was 0%.

[3] = target: T2, human GIPR (human), P48546
T2 chain: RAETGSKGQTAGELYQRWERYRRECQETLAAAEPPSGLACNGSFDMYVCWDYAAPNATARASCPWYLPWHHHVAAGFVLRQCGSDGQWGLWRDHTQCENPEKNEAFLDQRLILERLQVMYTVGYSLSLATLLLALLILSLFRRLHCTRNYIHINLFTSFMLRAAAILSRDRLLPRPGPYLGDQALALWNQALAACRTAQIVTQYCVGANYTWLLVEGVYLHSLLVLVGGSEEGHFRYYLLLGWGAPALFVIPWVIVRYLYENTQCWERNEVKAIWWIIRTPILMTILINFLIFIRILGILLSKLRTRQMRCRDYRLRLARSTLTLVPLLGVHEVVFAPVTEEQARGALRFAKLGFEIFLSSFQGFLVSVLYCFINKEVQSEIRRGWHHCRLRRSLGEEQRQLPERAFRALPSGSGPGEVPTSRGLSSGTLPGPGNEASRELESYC

[4] = target: T3, human GLP-1R (human), P43220
T3 chain: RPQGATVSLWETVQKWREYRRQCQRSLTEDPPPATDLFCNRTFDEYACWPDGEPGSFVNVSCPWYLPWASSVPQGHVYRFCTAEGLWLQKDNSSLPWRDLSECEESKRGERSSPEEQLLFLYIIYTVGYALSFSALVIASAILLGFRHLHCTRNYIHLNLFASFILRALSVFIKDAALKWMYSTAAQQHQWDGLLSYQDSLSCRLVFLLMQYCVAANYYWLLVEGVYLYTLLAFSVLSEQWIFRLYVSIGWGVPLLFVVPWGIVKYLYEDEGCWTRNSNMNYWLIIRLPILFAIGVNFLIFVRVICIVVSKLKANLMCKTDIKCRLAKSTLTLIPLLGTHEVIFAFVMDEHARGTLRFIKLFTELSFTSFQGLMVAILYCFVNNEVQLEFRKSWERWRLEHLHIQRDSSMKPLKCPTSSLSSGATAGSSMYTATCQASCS

[5] = target: T2, human GIPR (human), P48546; assay: [125I]GIP competition, human GIPR VLP
[6] = target: T4, human GIPR (human, UniProt P48546); assay: cell-based or functional assay
T4 sequence: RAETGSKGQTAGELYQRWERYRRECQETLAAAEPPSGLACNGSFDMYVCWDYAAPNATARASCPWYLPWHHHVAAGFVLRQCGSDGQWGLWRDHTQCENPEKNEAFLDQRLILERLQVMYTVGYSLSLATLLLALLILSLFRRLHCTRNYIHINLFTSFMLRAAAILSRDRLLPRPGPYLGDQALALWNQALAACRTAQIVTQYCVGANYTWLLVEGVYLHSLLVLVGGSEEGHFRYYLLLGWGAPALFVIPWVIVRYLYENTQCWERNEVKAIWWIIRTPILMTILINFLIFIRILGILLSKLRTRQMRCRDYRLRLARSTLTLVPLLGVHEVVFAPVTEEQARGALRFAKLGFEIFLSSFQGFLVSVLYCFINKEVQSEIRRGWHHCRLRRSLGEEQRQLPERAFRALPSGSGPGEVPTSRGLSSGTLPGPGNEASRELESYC

[7] = target: human GLP-1R (human, UniProt P43220); assay: cell-based or functional assay; remark: listed apart in the source
[8] = target: T5, human GIPR (human, UniProt P48546); assay: [125I]GIP displacement, hGIPR VLP
T5 sequence: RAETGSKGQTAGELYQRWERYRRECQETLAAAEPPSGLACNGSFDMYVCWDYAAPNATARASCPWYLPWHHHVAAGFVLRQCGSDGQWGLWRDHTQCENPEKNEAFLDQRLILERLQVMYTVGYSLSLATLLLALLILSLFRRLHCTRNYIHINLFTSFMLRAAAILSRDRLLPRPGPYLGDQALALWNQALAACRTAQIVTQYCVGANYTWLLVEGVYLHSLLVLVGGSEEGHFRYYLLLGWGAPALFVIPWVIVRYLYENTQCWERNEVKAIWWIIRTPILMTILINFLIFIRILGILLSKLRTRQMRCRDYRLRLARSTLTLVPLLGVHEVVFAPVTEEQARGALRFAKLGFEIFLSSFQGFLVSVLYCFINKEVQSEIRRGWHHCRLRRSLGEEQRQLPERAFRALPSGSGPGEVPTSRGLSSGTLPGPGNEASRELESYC
Experimental: as §1

Binder	Agonist activity (EC50, M) [3] [M]	Agonist activity (EC50, M) [4] [M]	IC50 [5] [nM]	Agonist activity (EC50, M) [6] [M]	Agonist activity (EC50, M) [7] [M]	further results
B1	–	–	–	–	–	Agonist activity (EC50, M) [1]: > 1e-06 M
B2	–	–	–	–	–	IC50 [2]: 8 nM
Y[Aib]EGTFISDYSIALDRK([PEG(2)-C20 diacid])AQQNFVNW[Iva]LAQRPSSGAPPPS (not fully specified (C-terminus); ends and bridges not checked) [Compound 408]	4.8e-10	> 1e-06	84	–	–	–
B3	–	–	–	1e-11	> 1e-06	–
Y[Aib]EGTFISDYSK([PEG(2)-C20 diacid])ALDRIAQQNFVNW[Iva]LAQRPSSGAPPPS (ends and bridges not checked) [Compound 381]	4.4e-11	> 1e-06	8.7	–	–	–
YAEGTVVSLYSIALDKQHQQEFVKWLLKGGPSSGAPPPSK [Compound 24, listing 1 of 2 here]	–	–	–	–	–	IC50 [8]: 370 nM
YAEGTVVSLYSIALYKIHQQEFVKWLLKGGPSSGAPPPSK [Compound 26, listing 1 of 2 here]	–	–	–	–	–	IC50 [8]: 420 nM
YAEGTVVSLYSIALDKQHQQEFVKWLLKGGPSSGAPPPSK [Compound 24, listing 2 of 2 here]	–	–	–	5.1e-09	> 1e-06	–
YAEGTVVSLYSIALDKIHQQEFVKWLLKGGPSSGAPPPSK [Compound 25, listing 1 of 2 here]	–	–	–	1.4e-09	> 1e-06	–
YAEGTVVSLYSIALDKIHQQEFVKWLLKGGPSSGAPPPSK [Compound 25, listing 2 of 2 here]	–	–	–	–	–	IC50 [8]: 520 nM
YAEGTVVSLYSIALYKIHQQEFVKWLLKGGPSSGAPPPSK [Compound 26, listing 2 of 2 here]	–	–	–	1.2e-08	> 1e-06	–
Y[Aib]EGTFISDYSIAK([PEG(2)-C20 diacid])DRIAQQNFVNW[Iva]LAQR (ends and bridges not checked) [Compound 389]	8e-11	> 1e-06	19	–	–	–
Y[Aib]EGTFISDYSIALDRK([PEG(2)-C20 diacid])AQQNFVNW[Iva]LAQRPSSGAPPPS (ends and bridges not checked) [Compound 385]	8.3e-11	> 1e-06	15	–	–	–
